Reference: publication PMC11735997

Biological target: Trichoplusia ni acetyl-coenzyme A carboxylase (Trichoplusia ni (endogenous in T. ni cells))
Assay: cryo-EM structure; endogenous T. ni ACC (~2 uM) in 25 mM Hepes pH 8.0, 150 mM NaCl, 1 mM TCEP; refined with C2 symmetry to 3.12 Å; only the CT domain (1622-2396) modelled

stoichiometry N: 2
Substance: Trichoplusia ni acetyl-coenzyme A carboxylase
